B1: STAT5A (S5; hyperactive variant cS5): T92A (protein)
parent chain: MAGWIQAQQLQGDALRQMQVLYGQHFPIEVRHYLAQWIESQPWDAIDLDNPQDRGQATQLLEGLVQELQKKAEHQVGEDGFLLKIKLGHYATQLQNTYDRCPMELVRCIRHILYNEQRLVREANNCSSPAGVLVDAMSQKHLQINQRFEELRLITQDTENELKKLQQTQEYFIIQYQESLRIQAQFAQLGQLNPQERMSRETALQQKQVSLETWLQREAQTLQQYRVELAEKHQKTLQLLRKQQTIILDDELIQWKRRQQLAGNGGPPEGSLDVLQSWCEKLAEIIWQNRQQIRRAEHLCQQLPIPGPVEEMLAEVNATITDIISALVTSTFIIEKQPPQVLKTQTKFAATVRLLVGGKLNVHMNPPQVKATIISEQQAKSLLKNENTRNECSGEILNNCCVMEYHQATGTLSAHFRNMSLKRIKRADRRGAESVTEEKFTVLFESQFSVGSNELVFQVKTLSLPVVVIVHGSQDHNATATVLWDNAFAEPGRVPFAVPDKVLWPQLCEALNMKFKAEVQSNRGLTKENLVFLAQKLFNISSNHLEDYNSMSVSWSQFNRENLPGWNYTFWQWFDGVMEVLKKHHKPHWNDGAILGFVNKQQAHDLLINKPDGTFLLRFSDSEIGGITIAWKFDSPDRNLWNLKPFTTRDFSIRSLADRLGDLNYLIYVFPDRPKDEVFAKYYTPVLAKAVDGYVKPQIKQVVPEFVNASTDAGASATYMDQAPSPVVCPQPHYNMYPPNPDPVLDQDGEFDLDESMDVARHVEELLRRPMDSLDARLSPPAGLFTSARSSLS
B2: STAT5A (S5; hyperactive variant cS5): S5-T92A (protein)
parent chain: MAGWIQAQQLQGDALRQMQVLYGQHFPIEVRHYLAQWIESQPWDAIDLDNPQDRGQATQLLEGLVQELQKKAEHQVGEDGFLLKIKLGHYATQLQNTYDRCPMELVRCIRHILYNEQRLVREANNCSSPAGVLVDAMSQKHLQINQRFEELRLITQDTENELKKLQQTQEYFIIQYQESLRIQAQFAQLGQLNPQERMSRETALQQKQVSLETWLQREAQTLQQYRVELAEKHQKTLQLLRKQQTIILDDELIQWKRRQQLAGNGGPPEGSLDVLQSWCEKLAEIIWQNRQQIRRAEHLCQQLPIPGPVEEMLAEVNATITDIISALVTSTFIIEKQPPQVLKTQTKFAATVRLLVGGKLNVHMNPPQVKATIISEQQAKSLLKNENTRNECSGEILNNCCVMEYHQATGTLSAHFRNMSLKRIKRADRRGAESVTEEKFTVLFESQFSVGSNELVFQVKTLSLPVVVIVHGSQDHNATATVLWDNAFAEPGRVPFAVPDKVLWPQLCEALNMKFKAEVQSNRGLTKENLVFLAQKLFNISSNHLEDYNSMSVSWSQFNRENLPGWNYTFWQWFDGVMEVLKKHHKPHWNDGAILGFVNKQQAHDLLINKPDGTFLLRFSDSEIGGITIAWKFDSPDRNLWNLKPFTTRDFSIRSLADRLGDLNYLIYVFPDRPKDEVFAKYYTPVLAKAVDGYVKPQIKQVVPEFVNASTDAGASATYMDQAPSPVVCPQPHYNMYPPNPDPVLDQDGEFDLDESMDVARHVEELLRRPMDSLDARLSPPAGLFTSARSSLS
B3: STAT5A (S5; hyperactive variant cS5): cS5-T92A (protein)
parent chain: MAGWIQAQQLQGDALRQMQVLYGQHFPIEVRHYLAQWIESQPWDAIDLDNPQDRGQATQLLEGLVQELQKKAEHQVGEDGFLLKIKLGHYATQLQNTYDRCPMELVRCIRHILYNEQRLVREANNCSSPAGVLVDAMSQKHLQINQRFEELRLITQDTENELKKLQQTQEYFIIQYQESLRIQAQFAQLGQLNPQERMSRETALQQKQVSLETWLQREAQTLQQYRVELAEKHQKTLQLLRKQQTIILDDELIQWKRRQQLAGNGGPPEGSLDVLQSWCEKLAEIIWQNRQQIRRAEHLCQQLPIPGPVEEMLAEVNATITDIISALVTSTFIIEKQPPQVLKTQTKFAATVRLLVGGKLNVHMNPPQVKATIISEQQAKSLLKNENTRNECSGEILNNCCVMEYHQATGTLSAHFRNMSLKRIKRADRRGAESVTEEKFTVLFESQFSVGSNELVFQVKTLSLPVVVIVHGSQDHNATATVLWDNAFAEPGRVPFAVPDKVLWPQLCEALNMKFKAEVQSNRGLTKENLVFLAQKLFNISSNHLEDYNSMSVSWSQFNRENLPGWNYTFWQWFDGVMEVLKKHHKPHWNDGAILGFVNKQQAHDLLINKPDGTFLLRFSDSEIGGITIAWKFDSPDRNLWNLKPFTTRDFSIRSLADRLGDLNYLIYVFPDRPKDEVFAKYYTPVLAKAVDGYVKPQIKQVVPEFVNASTDAGASATYMDQAPSPVVCPQPHYNMYPPNPDPVLDQDGEFDLDESMDVARHVEELLRRPMDSLDARLSPPAGLFTSARSSLS

What was measured:
[1] = oligomer EMSA, 293T, loading adapted to STAT5 activity; conditions: glycan lost; control: constructs without T92A
[2] = immunoblot, 293T with EpoR, EPO stimulation; conditions: glycan lost; control: matching construct without T92A (S5, cS5)
[3] = pYSTAT5 immunoblot time course after IL-3 withdrawal, Ba/F3; conditions: glycan lost; control: cS5
[4] = phospho-serine immunoblot, Ba/F3; conditions: glycan lost; control: cS5
[5] = pYSTAT5 immunoblot, Ba/F3 cells ± IL-3; conditions: glycan lost; control: cS5
[6] = total STAT5 immunoblot, Ba/F3; conditions: glycan lost; control: cS5

Protein | oligomerisation [1] | other: tyrosine phosphorylation (pYSTAT5) [2] | other: persistence of tyrosine phosphorylation [3] | other: serine 725/779 phosphorylation [4] | other: tyrosine phosphorylation (pYSTAT5) [5] | expression_or_secretion [6]
B1 | no change | – | – | – | – | –
B2 | – | no change | – | – | – | –
B3 | – | no change | decreases | no change | decreases | no change

From paper PMC5629373
